{
  "source": "paper PMC3763527",
  "assay_in_all_cases": "optical tweezers force spectroscopy; single-chain clamp held by two 777-bp DNA handles between streptavidin on a biotinylated quartz slide and an anti-digoxigenin-coated 2 µm bead in the laser trap; stage moved at 100 nm/s; trap stiffness 0.15 pN/nm; buffer B (100 mM sodium phosphate, 150 mM sodium chloride, pH 7.2); rupture of the one subunit-subunit interface that can open within the chain",
  "key": {"[1]": {"target": "single-chain E. coli β-clamp with cysteines at G102 (first subunit) and E298 (second subunit) (E. coli)"}, "[2]": {"target": "single-chain E. coli β-clamp with cysteines at E64 (first subunit) and E314 (second subunit) (E. coli)"}, "[3]": {"target": "single-chain S. cerevisiae PCNA with cysteines at D122 (first subunit) and D223 (third subunit) (S. cerevisiae)"}, "[4]": {"target": "single-chain S. cerevisiae PCNA with cysteines at K107 (first subunit) and F185 (third subunit) (S. cerevisiae)"}},
  "data": [
    {"substance": "single-chain E. coli β-clamp with cysteines at G102 (first subunit) and E298 (second subunit)", "values": [
      {"measurement": "rupture force of the subunit interface", "setting": "[1]", "result": 12, "unit": "pN"}
    ]},
    {"substance": "single-chain E. coli β-clamp with cysteines at E64 (first subunit) and E314 (second subunit)", "values": [
      {"measurement": "rupture force of the subunit interface", "setting": "[2]", "result": 5.8, "unit": "pN"}
    ]},
    {"substance": "single-chain S. cerevisiae PCNA with cysteines at D122 (first subunit) and D223 (third subunit)", "values": [
      {"measurement": "rupture force of the subunit interface", "setting": "[3]", "result": 11, "unit": "pN"}
    ]},
    {"substance": "single-chain S. cerevisiae PCNA with cysteines at K107 (first subunit) and F185 (third subunit)", "values": [
      {"measurement": "rupture force of the subunit interface", "setting": "[4]", "result": 1.7, "unit": "pN"}
    ]}
  ]
}
